Assay results published in article PMC2956612 (Structure (London, England : 1993), 2010).
Ends that are not written are not given here. * marks the point of attachment. Biotin = O=C1N[C@H]2[C@H](CS[C@H]2CCCCC(=O)*)N1

T1: full length VDR/RXRα heterodimer (His-hVDR with Flag-hRXRα) (human, UniProt P11473 1-427; P19793 1-462)
T1 sequence (looked up) 1: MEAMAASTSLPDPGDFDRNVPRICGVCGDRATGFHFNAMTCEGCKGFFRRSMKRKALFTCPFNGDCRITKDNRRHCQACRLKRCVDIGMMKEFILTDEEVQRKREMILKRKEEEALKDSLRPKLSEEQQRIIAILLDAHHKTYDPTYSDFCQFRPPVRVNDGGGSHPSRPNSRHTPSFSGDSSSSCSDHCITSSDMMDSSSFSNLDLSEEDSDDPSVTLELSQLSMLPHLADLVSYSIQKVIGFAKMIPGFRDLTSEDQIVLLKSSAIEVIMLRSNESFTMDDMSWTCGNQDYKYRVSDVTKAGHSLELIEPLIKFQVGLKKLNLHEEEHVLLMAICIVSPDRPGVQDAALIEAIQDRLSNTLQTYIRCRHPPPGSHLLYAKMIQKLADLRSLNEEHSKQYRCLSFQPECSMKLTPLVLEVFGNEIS
T1 sequence (looked up) 2: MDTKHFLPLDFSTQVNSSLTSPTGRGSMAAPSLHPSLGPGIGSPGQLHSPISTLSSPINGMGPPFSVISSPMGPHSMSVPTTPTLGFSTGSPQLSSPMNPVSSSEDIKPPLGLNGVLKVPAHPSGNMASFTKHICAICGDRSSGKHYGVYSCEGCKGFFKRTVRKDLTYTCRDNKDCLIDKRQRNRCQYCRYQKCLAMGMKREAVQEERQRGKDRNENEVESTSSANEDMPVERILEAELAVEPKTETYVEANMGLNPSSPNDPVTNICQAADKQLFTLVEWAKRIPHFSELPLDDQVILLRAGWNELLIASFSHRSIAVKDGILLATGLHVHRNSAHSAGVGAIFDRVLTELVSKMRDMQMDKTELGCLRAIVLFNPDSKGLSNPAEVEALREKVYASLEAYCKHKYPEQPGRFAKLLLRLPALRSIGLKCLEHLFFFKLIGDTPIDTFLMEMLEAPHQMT


Target: T1, full length VDR/RXRα heterodimer …
Experiment: AlphaScreen or HTRF

binding result	Binder
binds	Biotin-KGGTPPPVSSMAGNTKNHPMLMNLLKDNPAQDF [biotinylated DRIP 205-2 peptide]
binds	Biotin-KGGGGSCPSSHSSLTERHKILHRLLQEGSPSDI [biotinylated SRC1-NR2 peptide]
